# Paper PMC3020742 (The Journal of Biological Chemistry, 2010)
# B1: MyD88 R98C DD, purified from bacteria (domain or fragment)
# chain: SLPLAALNMRVRRRLSLFLNVRTQVAADWTALAEEMDFEYLEIRQLETQADPTGRLLDAWQGRPGASVGRLLELLTKLGCDDVLLELGPSI
# B2: Renilla luciferase-tagged IRAK4 DD (residues 1-106) (domain or fragment)
# chain: MNKPITPSTYVRCLNVGLIRKLSDFIDPQEGWKKLAVAIKKPSGDDRYNQFHIRRFEALLQTGKSPTSELLFDWGTTNCTVGDLVDLLIQNEFFAPASLLLPDAVP
# Legend:
# [1] = molecular target: the molecule itself; assay: SEC
# [2] = molecular target: MyD88 S34Y DD-ID (residues 1-156), Protein A-tagged (LUMIER) (human, UniProt Q99836 1-156, S34Y); assay: LUMIER
# MyD88 S34Y DD-ID (residues 1-156), Protein A-tagged (LUMIER), sequence (Q99836 1-156 S34Y): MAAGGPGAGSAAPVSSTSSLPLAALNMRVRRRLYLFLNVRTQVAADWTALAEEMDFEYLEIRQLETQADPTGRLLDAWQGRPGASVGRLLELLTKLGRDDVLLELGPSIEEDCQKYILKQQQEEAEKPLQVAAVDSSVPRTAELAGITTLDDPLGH
# [3] = molecular target: MyD88 R98C DD-ID (residues 1-156), Protein A-tagged (LUMIER) (human, UniProt Q99836 1-156, R98C); assay: LUMIER
# MyD88 R98C DD-ID (residues 1-156), Protein A-tagged (LUMIER), sequence (Q99836 1-156 R98C): as the sequence (Q99836 1-156 S34Y) above, with Y34S, R98C counted along it
Binder,stoichiometry N [1],fold reduction of binding against WT DD [2] [fold],fold reduction of binding against WT DD [3] [fold]
B1,2,–,–
B2,–,> 10,> 10
